B1: MgCyp51-T12: dsRNA tile of Zymoseptoria tritici Cyp51, 138 bp, location 1377-1514 (nucleic acid, listed as Zymoseptoria tritici)
chain: TGGCTACGGCCTGGTAAGCAAGGGCGCGGCGTCGCCATACTTACCCTTTGGTGCGGGACGACACAGATGTATCGGCGAGCAATTCGCGTACGTGCAATTGCAGACCATTACAGCGACGATGGTTCGCGATTTCAAGTT
B2: MgCyp51-T13: dsRNA tile of Zymoseptoria tritici Cyp51, 119 bp, location 1517-1635 (nucleic acid, listed as Zymoseptoria tritici)
chain: ACAATGTGGATGGCAGCGACAACGTGGTGGGTACGGATTACAGCAGTTTGTTCAGCCGGCCGCTGTCGCCGGCAGTAGTAAAGTGGGAGAGGAGGGAGGAGAAGGAGGAGAAGAACTGA
modifications: long dsRNA tile, purified, chemistry not given here
B3: YFP: non-target dsRNA control (YFP, yellow fluorescent protein coding region) (nucleic acid)
chain: TGTAGAAATCCTTCAGCTCGGGGCCGTACTTGGCGAAGCACTGGGCGCCGTAGGTCAGGGTGGTCACCAGGGTGCTCCAGGGCACGGGCACATCGCCGGTGGTGCAGATGAACTGGGCATCCACCTTGCCCACGCTGGCATCGCCGTAGCCCTTGCCGCGGATGCTGAAGGTGTGGCCATCCACATTGCCCTCCATCTCCACCACGTAGGGGATCTTGCCGTGGAACAGCAGGGCGCCGCTGGAGCCCAT
modifications: double-stranded RNA; synthesized partial coding region

Some results are limits rather than exact numbers.

We go through 3 molecules from US20180320179A1, “LANOSTEROL 14-ALPHA DEMETHYLASE (CYP51) NUCLEIC ACID MOLECULES THAT CONTROL PATHOGENS” (Dow AgroSciences LLC, priority 2017, published 2018).

The first data set relates to Zymoseptoria tritici (SEPTTR-184). Kind of data set: Cyp51 dsRNA tile (fragment) foliar application bioassay (Example 6). Type of data set: in vivo. The conditions noted are these: 1 day protectant; calculated from disease control. As for the experimental part:
The 200 ppm concentration for each treatment was prepared by adding the calculated volume of the corresponding dsRNA solution in TE buffer. […] A non-target dsRNA control (YFP), a TE/phosphate buffer control, disease pressure control, and clean plant control were included.
These plants were inoculated with an aqueous spore suspension of Zymoseptoria tritici either prior to or after fungicidal treatments. After inoculation the plants were kept in 100% relative humidity to allow spores to germinate and infect the leaves. The plants were then transferred to a greenhouse set at 20° C. until disease developed.
On to B1, for which the “ED50 (ppm) SEPTTR-184 1DP” value was less than 3.125 ppm and the “ED80 (ppm) SEPTTR-184 1DP” value is more than 200 ppm.

For B2, the “ED50 (ppm) SEPTTR-184 1DP” value is less than 3.125 ppm and the “ED80 (ppm) SEPTTR-184 1DP” value is listed as more than 200 ppm.

On to B3, for which the “ED50 (ppm) SEPTTR-184 1DP” value is on record as more than 200 ppm and the “ED80 (ppm) SEPTTR-184 1DP” value is more than 200 ppm.

The data set is the same for the next values; noted with them: 1 day protectant; rate 3.125 ppm; average of 2 trials.
In the case of B1, the “Disease Control (%) SEPTTR-184 1DP” value was 59%.

B2: the “Disease Control (%) SEPTTR-184 1DP” value is listed as 58%.

On to B3, for which the “Disease Control (%) SEPTTR-184 1DP” value came to 0%.

Staying with this data set, now noted: 1 day protectant; rate 12.5 ppm; average of 2 trials.
For the molecule B1, the “Disease Control (%) SEPTTR-184 1DP” value was found to be 64%.

Take B2: the “Disease Control (%) SEPTTR-184 1DP” value was 59%.

Regarding B3, the “Disease Control (%) SEPTTR-184 1DP” value amounted to 15%.

Still in this data set, the particulars now being: 1 day protectant; rate 50 ppm; average of 2 trials.
For the molecule B1, the “Disease Control (%) SEPTTR-184 1DP” value was 63%.

For the molecule B2, the “Disease Control (%) SEPTTR-184 1DP” value is given as 70%.

For the molecule B3, the “Disease Control (%) SEPTTR-184 1DP” value was determined as 23%.

Staying with this data set, now noted: 1 day protectant; rate 200 ppm; average of 2 trials.
For B1, the “Disease Control (%) SEPTTR-184 1DP” value is on record as 64%.

In the case of B2, the “Disease Control (%) SEPTTR-184 1DP” value stood at 74%.

B3: the “Disease Control (%) SEPTTR-184 1DP” value came to 27%.

The same data set, now with this note: 3 days curative; calculated from disease control.
B1: the “ED50 (ppm) SEPTTR-184 3DC” value is 24.219 ppm and the “ED80 (ppm) SEPTTR-184 3DC” value is given as more than 200 ppm.

Regarding B2, the “ED50 (ppm) SEPTTR-184 3DC” value is listed as 4.167 ppm and the “ED80 (ppm) SEPTTR-184 3DC” value is reported as more than 200 ppm.

As to B3, the “ED50 (ppm) SEPTTR-184 3DC” value is given as more than 200 ppm and the “ED80 (ppm) SEPTTR-184 3DC” value was more than 200 ppm.

The same data set, now with this note: 3 days curative; rate 3.125 ppm; average of 2 trials.
For the molecule B1, the “Disease Control (%) SEPTTR-184 3DC” value is reported as 36%.

For B2, the “Disease Control (%) SEPTTR-184 3DC” value is listed as 45%.

With B3, the “Disease Control (%) SEPTTR-184 3DC” value is listed as 15%.

Still in this data set, the particulars now being: 3 days curative; rate 12.5 ppm; average of 2 trials.
As for B1, the “Disease Control (%) SEPTTR-184 3DC” value was 45%.

Regarding B2, the “Disease Control (%) SEPTTR-184 3DC” value was 54%.

Regarding B3, the “Disease Control (%) SEPTTR-184 3DC” value was found to be 19%.

The data set is the same for the next values; noted with them: 3 days curative; rate 50 ppm; average of 2 trials.
As for B1, the “Disease Control (%) SEPTTR-184 3DC” value is given as 61%.

B2: the “Disease Control (%) SEPTTR-184 3DC” value is reported as 64%.

As to B3, the “Disease Control (%) SEPTTR-184 3DC” value was 19%.

Still in this data set, the particulars now being: 3 days curative; rate 200 ppm; average of 2 trials.
As to B1, the “Disease Control (%) SEPTTR-184 3DC” value stood at 71%.

B2: the “Disease Control (%) SEPTTR-184 3DC” value came to 59%.

As to B3, the “Disease Control (%) SEPTTR-184 3DC” value is 35%.
